Numbered stars: 1 amine (or outer) side, 2 acyl side, 3 side chain; on linkers, the order of the positions; unused ones are H or OH. Bridge positions count the residues as written; N and C are the ends. Square brackets hold non-standard residues; d marks the D form. * marks the point of attachment. 5,5‑diMe‑P = 5,5-dimethyl-L-proline, CC1(C)CC[C@@H](C(=O)[*:2])N1[*:1]; DOTA = O=C(O)CN1CCN(CC(=O)O)CCN(CC(=O)*)CCN(CC(=O)O)CC1; Pro(4,4-F2) = O=C(O)[C@@H]1CC(F)(F)CN1; 1Nal = N[C@@H](Cc1cccc2ccccc12)C(=O)O; 2Nal = N[C@@H](Cc1ccc2ccccc2c1)C(=O)O; cisHyp = O=C(O)[C@@H]1C[C@H](O)CN1; hPhe = N[C@@H](CCc1ccccc1)C(=O)O; αMeP = C[C@@]1(C(=O)O)CCCN1; NMeA = CN[C@@H](C)C(=O)O; dNMeA = CN[C@H](C)C(=O)O; Aze = O=C(O)[C@@H]1CCN1; Ahx = NCCCCCC(=O)O

The target of this experiment is T1, Biotinylated human DLL3 (human, UniProt Q9NYJ7 27-492, biotinylated (site not stated)).
T1 construct: also called Delta-like ligand 3; Delta Like Canonical Notch Ligand 3
T1 sequence (looked up): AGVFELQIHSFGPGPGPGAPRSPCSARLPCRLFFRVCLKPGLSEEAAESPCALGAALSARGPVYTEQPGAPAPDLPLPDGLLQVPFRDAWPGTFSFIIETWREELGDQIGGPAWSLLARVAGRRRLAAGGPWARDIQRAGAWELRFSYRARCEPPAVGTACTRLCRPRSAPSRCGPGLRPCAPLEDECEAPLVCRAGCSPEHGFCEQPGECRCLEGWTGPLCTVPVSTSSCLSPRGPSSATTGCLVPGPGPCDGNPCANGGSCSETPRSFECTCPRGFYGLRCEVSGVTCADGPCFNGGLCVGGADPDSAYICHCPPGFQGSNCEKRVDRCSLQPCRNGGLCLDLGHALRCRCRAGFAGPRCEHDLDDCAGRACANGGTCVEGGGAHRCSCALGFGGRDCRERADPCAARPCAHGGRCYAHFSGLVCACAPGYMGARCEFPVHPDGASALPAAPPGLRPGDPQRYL
Put plainly: SPR, biotin-hDLL3 on SA chip. (SPR reads the build-up and loss of mass on a sensor chip optically.)

B1: Cpd #41 (peptide)
peptide: {DOTA}-[Ahx]SDCWLQWNCP[hPhe]D-NH2
modifications: disulfide 4-10
SMILES: CC(C)C[C@@H]1NC(=O)[C@H](Cc2c[nH]c3ccccc23)NC(=O)[C@@H](NC(=O)[C@H](CC(=O)O)NC(=O)[C@H](CO)NC(=O)CCCCCNC(=O)CN2CCN(CC(=O)O)CCN(CC(=O)O)CCN(CC(=O)O)CC2)CSSC[C@@H](C(=O)N2CCC[C@H]2C(=O)N[C@@H](CCc2ccccc2)C(=O)N[C@@H](CC(=O)O)C(N)=O)NC(=O)[C@H](CC(N)=O)NC(=O)[C@H](Cc2c[nH]c3ccccc23)NC(=O)[C@H](CCC(N)=O)NC1=O
The Kd is the free concentration of one partner at which half of the binding sites on the other are occupied at equilibrium, for simple one-to-one binding. A low value points to tighter binding. In the case of B1, the Kd amounted to 83 nM.

B2: Cpd #30 (peptide)
peptide: Ac-MSDCWLQWNCPFD[dK](DOTA)-NH2
modifications: disulfide 4-10
Turning to B2, the Kd was 8.6 nM.

B3: Cpd #83 (peptide)
peptide: Ac-KSDCWLQWNCPFD[dK](DOTA)-NH2
modifications: disulfide 4-10
As for B3, the Kd came to 32 nM.

B4: Cpd #84 (peptide)
peptide: Ac-[dK]SDCWLQWNCPFD[dK](DOTA)-NH2
modifications: disulfide 4-10
With B4, binding was put at a Kd of 29 nM.

B5: Cpd #49 (peptide)
peptide: Ac-MSDCWLQWNC[NMeA]FD[dK](DOTA)-NH2
modifications: disulfide 4-10
SMILES: CSCC[C@H](NC(C)=O)C(=O)N[C@@H](CO)C(=O)N[C@@H](CC(=O)O)C(=O)N[C@H]1CSSC[C@@H](C(=O)N(C)[C@@H](C)C(=O)N[C@@H](Cc2ccccc2)C(=O)N[C@@H](CC(=O)O)C(=O)N[C@H](CCCCNC(=O)CN2CCN(CC(=O)O)CCN(CC(=O)O)CCN(CC(=O)O)CC2)C(N)=O)NC(=O)[C@H](CC(N)=O)NC(=O)[C@H](Cc2c[nH]c3ccccc23)NC(=O)[C@H](CCC(N)=O)NC(=O)[C@H](CC(C)C)NC(=O)[C@H](Cc2c[nH]c3ccccc23)NC1=O
For B5, the Kd is 19.6 nM.

B6: Cpd #61 (peptide)
peptide: Ac-MSDCWLQ[1Nal]NCPFD[dK](DOTA)-NH2
modifications: disulfide 4-10
SMILES: CSCC[C@H](NC(C)=O)C(=O)N[C@@H](CO)C(=O)N[C@@H](CC(=O)O)C(=O)N[C@H]1CSSC[C@@H](C(=O)N2CCC[C@H]2C(=O)N[C@@H](Cc2ccccc2)C(=O)N[C@@H](CC(=O)O)C(=O)N[C@H](CCCCNC(=O)CN2CCN(CC(=O)O)CCN(CC(=O)O)CCN(CC(=O)O)CC2)C(N)=O)NC(=O)[C@H](CC(N)=O)NC(=O)[C@H](Cc2cccc3ccccc23)NC(=O)[C@H](CCC(N)=O)NC(=O)[C@H](CC(C)C)NC(=O)[C@H](Cc2c[nH]c3ccccc23)NC1=O
As to B6, the Kd turned out to be 2.72 nM.

B7: Cpd #31 (peptide)
peptide: Ac-SDCWLQWNCPFD[dK](DOTA)-NH2
modifications: disulfide 3-9
B7 came in with a Kd of 25.5 nM.

B8: Cpd #45 (peptide)
peptide: Ac-MSDCWLQWNC[cisHyp]FD[dK](DOTA)-NH2
modifications: disulfide 4-10
B8: the affinity, expressed as Kd, was 40.6 nM.

B9: Cpd #52 (peptide)
peptide: Ac-MSDCWLQWNC[Pro(4,4-F2)]FD[dK](DOTA)-NH2
modifications: disulfide 4-10
On to B9, for which the Kd is 17 nM.

B10: Cpd #22 (peptide)
peptide: Ac-MSDCALQWNCPFD-NH2
modifications: disulfide 4-10
SMILES: CSCC[C@H](NC(C)=O)C(=O)N[C@@H](CO)C(=O)N[C@@H](CC(=O)O)C(=O)N[C@H]1CSSC[C@@H](C(=O)N2CCC[C@H]2C(=O)N[C@@H](Cc2ccccc2)C(=O)N[C@@H](CC(=O)O)C(N)=O)NC(=O)[C@H](CC(N)=O)NC(=O)[C@H](Cc2c[nH]c3ccccc23)NC(=O)[C@H](CCC(N)=O)NC(=O)[C@H](CC(C)C)NC(=O)[C@H](C)NC1=O
Take B10: the binding result is reported as “no binding”.

B11: Cpd #28 (peptide)
peptide: Ac-MSDCWLQWNCPAD-NH2
modifications: disulfide 4-10
SMILES: CSCC[C@H](NC(C)=O)C(=O)N[C@@H](CO)C(=O)N[C@@H](CC(=O)O)C(=O)N[C@H]1CSSC[C@@H](C(=O)N2CCC[C@H]2C(=O)N[C@@H](C)C(=O)N[C@@H](CC(=O)O)C(N)=O)NC(=O)[C@H](CC(N)=O)NC(=O)[C@H](Cc2c[nH]c3ccccc23)NC(=O)[C@H](CCC(N)=O)NC(=O)[C@H](CC(C)C)NC(=O)[C@H](Cc2c[nH]c3ccccc23)NC1=O
B11: the binding result is on record as “no binding”.

B12: Cpd #29 (peptide)
peptide: Ac-MSDCWLQWNCPFA-NH2
modifications: disulfide 4-10
SMILES: CSCC[C@H](NC(C)=O)C(=O)N[C@@H](CO)C(=O)N[C@@H](CC(=O)O)C(=O)N[C@H]1CSSC[C@@H](C(=O)N2CCC[C@H]2C(=O)N[C@@H](Cc2ccccc2)C(=O)N[C@@H](C)C(N)=O)NC(=O)[C@H](CC(N)=O)NC(=O)[C@H](Cc2c[nH]c3ccccc23)NC(=O)[C@H](CCC(N)=O)NC(=O)[C@H](CC(C)C)NC(=O)[C@H](Cc2c[nH]c3ccccc23)NC1=O
In the case of B12, the binding result is recorded as “no binding”.

B13: Cpd #27 (peptide)
peptide: Ac-MSDCWLQWNCAFD-NH2
modifications: disulfide 4-10
SMILES: CSCC[C@H](NC(C)=O)C(=O)N[C@@H](CO)C(=O)N[C@@H](CC(=O)O)C(=O)N[C@H]1CSSC[C@@H](C(=O)N[C@@H](C)C(=O)N[C@@H](Cc2ccccc2)C(=O)N[C@@H](CC(=O)O)C(N)=O)NC(=O)[C@H](CC(N)=O)NC(=O)[C@H](Cc2c[nH]c3ccccc23)NC(=O)[C@H](CCC(N)=O)NC(=O)[C@H](CC(C)C)NC(=O)[C@H](Cc2c[nH]c3ccccc23)NC1=O
For the molecule B13, the binding result is “no binding”.

B14: Cpd #24 (peptide)
peptide: Ac-MSDCWLAWNCPFD-NH2
modifications: disulfide 4-10
SMILES: CSCC[C@H](NC(C)=O)C(=O)N[C@@H](CO)C(=O)N[C@@H](CC(=O)O)C(=O)N[C@H]1CSSC[C@@H](C(=O)N2CCC[C@H]2C(=O)N[C@@H](Cc2ccccc2)C(=O)N[C@@H](CC(=O)O)C(N)=O)NC(=O)[C@H](CC(N)=O)NC(=O)[C@H](Cc2c[nH]c3ccccc23)NC(=O)[C@H](C)NC(=O)[C@H](CC(C)C)NC(=O)[C@H](Cc2c[nH]c3ccccc23)NC1=O
Regarding B14, binding was characterised by a dissociation constant (Kd) of 4.9 nM.

B15: Cpd #51 (peptide)
peptide: Ac-MSDCWLQWNC[αMeP]FD[dK](DOTA)-NH2
modifications: disulfide 4-10
As to B15, binding was put at a Kd of 2.6 nM.

B16: Cpd #48 (peptide)
peptide: Ac-MSDCWLQWNC[Aze]FD[dK](DOTA)-NH2
modifications: disulfide 4-10
The molecule B16 registered a Kd of 64 nM.

B17: Cpd #50 (peptide)
peptide: Ac-MSDCWLQWNC[dNMeA]FD[dK](DOTA)-NH2
modifications: disulfide 4-10
SMILES: CSCC[C@H](NC(C)=O)C(=O)N[C@@H](CO)C(=O)N[C@@H](CC(=O)O)C(=O)N[C@H]1CSSC[C@@H](C(=O)N(C)[C@H](C)C(=O)N[C@@H](Cc2ccccc2)C(=O)N[C@@H](CC(=O)O)C(=O)N[C@H](CCCCNC(=O)CN2CCN(CC(=O)O)CCN(CC(=O)O)CCN(CC(=O)O)CC2)C(N)=O)NC(=O)[C@H](CC(N)=O)NC(=O)[C@H](Cc2c[nH]c3ccccc23)NC(=O)[C@H](CCC(N)=O)NC(=O)[C@H](CC(C)C)NC(=O)[C@H](Cc2c[nH]c3ccccc23)NC1=O
In the case of B17, the Kd is 4.94 nM.

B18: Cpd #46 (peptide)
peptide: Ac-MSDCWLQWNC[5,5‑diMe‑P]FD[dK](DOTA)-NH2
modifications: disulfide 4-10
SMILES: CSCC[C@H](NC(C)=O)C(=O)N[C@@H](CO)C(=O)N[C@@H](CC(=O)O)C(=O)N[C@H]1CSSC[C@@H](C(=O)N2[C@H](C(=O)N[C@@H](Cc3ccccc3)C(=O)N[C@@H](CC(=O)O)C(=O)N[C@H](CCCCNC(=O)CN3CCN(CC(=O)O)CCN(CC(=O)O)CCN(CC(=O)O)CC3)C(N)=O)CCC2(C)C)NC(=O)[C@H](CC(N)=O)NC(=O)[C@H](Cc2c[nH]c3ccccc23)NC(=O)[C@H](CCC(N)=O)NC(=O)[C@H](CC(C)C)NC(=O)[C@H](Cc2c[nH]c3ccccc23)NC1=O
In turn, B18 had a Kd of 12 nM.

B19: Cpd #62 (peptide)
peptide: Ac-MSDCWLQ[2Nal]NCPFD[dK](DOTA)-NH2
modifications: disulfide 4-10
SMILES: CSCC[C@H](NC(C)=O)C(=O)N[C@@H](CO)C(=O)N[C@@H](CC(=O)O)C(=O)N[C@H]1CSSC[C@@H](C(=O)N2CCC[C@H]2C(=O)N[C@@H](Cc2ccccc2)C(=O)N[C@@H](CC(=O)O)C(=O)N[C@H](CCCCNC(=O)CN2CCN(CC(=O)O)CCN(CC(=O)O)CCN(CC(=O)O)CC2)C(N)=O)NC(=O)[C@H](CC(N)=O)NC(=O)[C@H](Cc2ccc3ccccc3c2)NC(=O)[C@H](CCC(N)=O)NC(=O)[C@H](CC(C)C)NC(=O)[C@H](Cc2c[nH]c3ccccc23)NC1=O
B19: the Kd came to 2.5 nM.

(Values after US20250186541A1, “DLL3 TARGETING PEPTIDES AND CONSTRUCTS THEREOF” (MARIANA ONCOLOGY INC., priority 2023, published 2025).)
